T1: protein zero related (PZR), tyrosine-phosphorylated
T1 chain: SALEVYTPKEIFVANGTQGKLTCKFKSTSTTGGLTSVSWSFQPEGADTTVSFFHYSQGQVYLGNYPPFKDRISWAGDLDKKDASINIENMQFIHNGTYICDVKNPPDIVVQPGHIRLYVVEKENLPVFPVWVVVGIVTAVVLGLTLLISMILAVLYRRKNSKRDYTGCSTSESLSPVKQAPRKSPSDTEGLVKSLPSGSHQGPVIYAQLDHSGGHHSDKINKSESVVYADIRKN

B1: SH2 domain-truncated form of SHP-2 (protein)
chain: NPMVETLGTVLQLKQPLNTTRINAAEIESRVRELSKLAETTDKVKQGFWEEFETLQQQECKLLYSRKEGQRQENKNKNRYKNILPFDHTRVVLHDGDPNEPVSDYINANIIMPEFETKCNNSKPKKSYIATQGCLQNTVNDFWRMVFQENSRVIVMTTKEVERGKSKCVKYWPDEYALKEYGVMRVRNVKESAAHDYTLRELKLSKVGQGNTERTVWQYHFRTWPDHGVPSDPGGVLDFLEEVHHKQESIMDAGPVVVHCSAGIGRTGTFIVIDILIDIIREKGVDCDIDVPKTIQMVRSQRSGMVQTEAQYRFIYMAVQHYIETLQRRIEEEQKSKRKGHEYTNIKYSLADQTSGDQSPLPPCTPTPPCAEMREDSARVYENVGLMQQQKSFR
B2: tyrosine phosphatase SHP-2, native full-length form (protein)
chain: TSRRWFHPNITGVEAENLLLTRGVDGSFLARPSKSNPGDFTLSVRRNGAVTHIKIQNTGDYYDLYGGEKFATLAELVQYYMEHHGQLKEKNGDVIELKYPLNCADPTSERWFHGHLSGKEAEKLLTEKGKHGSFLVRESQSHPGDFVLSVRTGDDKGESNDGKSKVTHVMIRCQELKYDVGGGERFDSLTDLVEHYKKNPMVETLGTVLQLKQPLNTTRINAAEIESRVRELSKLAETTDKVKQGFWEEFETLQQQECKLLYSRKEGQRQENKNKNRYKNILPFDHTRVVLHDGDPNEPVSDYINANIIMPEFETKCNNSKPKKSYIATQGCLQNTVNDFWRMVFQENSRVIVMTTKEVERGKSKCVKYWPDEYALKEYGVMRVRNVKESAAHDYTLRELKLSKVGQGNTERTVWQYHFRTWPDHGVPSDPGGVLDFLEEVHHKQESIMDAGPVVVHCSAGIGRTGTFIVIDILIDIIREKGVDCDIDVPKTIQMVRSQRSGMVQTEAQYRFIYMAVQHYIETLQRRIEEEQKSKRKGHEYTNIKYSLADQTSGDQSPLPPCTPTPPCAEMREDSARVYENVGLMQQQKSFR

Target: T1, protein zero related (PZR), …

| Protein | in vitro dephosphorylation of immuno-purified tyrosine-phosphorylated PZR (anti-phosphotyrosine Western blot) | dephosphorylation of purified p43 in vitro (anti-phosphotyrosine Western blot) | in vitro dephosphorylation of immuno-purified tyrosine-phosphorylated PZR |
| --- | --- | --- | --- |
| B1 | the truncated enzyme had essentially no effect |  |  |
| B2 | full length SHP-2 caused rapid dephosphorylation | SHP-2 caused complete dephosphorylation of p43 | higher concentrations of SHP-2 (up to 5 µg/ml) helped to push the dephosphorylation to near completion |
